Data taken from publication PMC3479092, “Tsetse Salivary Gland Proteins 1 and 2 Are High Affinity Nucleic Acid Binding Proteins with Residual Nuclease Activity”.

T1: Tsal1 (Glossina morsitans morsitans, UniProt D3TS87 23-399)
T1 sequence: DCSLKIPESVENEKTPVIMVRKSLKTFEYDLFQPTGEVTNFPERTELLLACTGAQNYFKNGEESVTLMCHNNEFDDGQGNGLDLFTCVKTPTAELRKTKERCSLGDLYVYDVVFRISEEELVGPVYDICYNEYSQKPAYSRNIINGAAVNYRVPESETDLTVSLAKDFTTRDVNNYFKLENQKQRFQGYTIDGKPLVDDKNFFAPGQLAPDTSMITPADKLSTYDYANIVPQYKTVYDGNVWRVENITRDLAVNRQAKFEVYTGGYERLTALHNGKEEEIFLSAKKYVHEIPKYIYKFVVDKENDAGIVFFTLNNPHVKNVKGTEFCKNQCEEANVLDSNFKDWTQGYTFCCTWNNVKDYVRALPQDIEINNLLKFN


How the values were obtained:
[1] = target: T1, Tsal1; experiment: SPR; conditions: SPR (BIAcore), 50 mM sodium acetate pH 4.0, 150 mM NaCl, 3.5 mM EDTA, 0.005% Tween-20, 30 ul/min, Langmuir 1:1 fit; temperature not stated
[2] = target: T1, Tsal1; experiment: SPR; text: 1.03 nM; ka 1.0E+06, kd 1.0E-03; SPR (BIAcore), 50 mM sodium acetate pH 4.0, 150 mM NaCl, 3.5 mM EDTA, 0.005% Tween-20, 30 ul/min, Langmuir 1:1 fit; temperature not stated; conditions: protein: recombinant; tags: pelB leader (pET22b), His tag implied by Ni-NTA; blunt

Molecule | Kd [1] [nM] | Kd [2] [nM]
dsRNA 121 bp | 2.8 | 
dsDNA 161 bp | 0.45 | 
dsDNA 25bp polyA/T (dsDNA) DNA 1: AAAAAAAAAAAAAAAAAAAAAAAAA DNA 2: TTTTTTTTTTTTTTTTTTTTTTTTT |  | 1
